T1: human CD93 (human, UniProt Q9NPY3 22-652)
T1 construct: whole, on cells; Endogenous CD93 on AML cell lines
T1 sequence (looked up): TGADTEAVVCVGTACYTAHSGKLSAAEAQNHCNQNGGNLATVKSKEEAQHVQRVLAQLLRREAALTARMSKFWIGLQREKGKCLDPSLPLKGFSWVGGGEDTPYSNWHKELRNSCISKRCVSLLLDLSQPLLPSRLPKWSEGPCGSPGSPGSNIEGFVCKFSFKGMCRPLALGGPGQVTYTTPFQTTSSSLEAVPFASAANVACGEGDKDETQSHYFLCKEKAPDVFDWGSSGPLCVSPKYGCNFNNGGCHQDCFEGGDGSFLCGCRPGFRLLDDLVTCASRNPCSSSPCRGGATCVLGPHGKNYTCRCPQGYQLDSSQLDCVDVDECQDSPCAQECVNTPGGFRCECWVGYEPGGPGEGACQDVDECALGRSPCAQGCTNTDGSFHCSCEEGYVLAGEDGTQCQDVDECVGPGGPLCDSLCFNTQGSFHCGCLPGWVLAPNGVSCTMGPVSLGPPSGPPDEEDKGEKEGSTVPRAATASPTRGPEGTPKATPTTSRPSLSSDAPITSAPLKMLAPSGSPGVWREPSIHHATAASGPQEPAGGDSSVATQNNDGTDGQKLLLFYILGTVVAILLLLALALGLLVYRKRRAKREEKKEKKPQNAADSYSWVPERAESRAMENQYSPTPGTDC


How the values were obtained:
[1] = biological target: T1, human CD93; assay: hybridoma supernatant screen by ELISA and flow cytometry
[2] = biological target: T1, human CD93; assay: flow cytometry on AML cell lines, biotinylated antibody and streptavidin APC
Protocol: FIG. 8. CD93-specific CAR T cells produce cytokines when incubated with CD93 positive AML cell lines. A. AML cell lines were first treated with Fc block, then were stained with biotinylated HuF11 antibody followed by streptavidin APC, or with streptavidin APC only as a control. CD93 was highly expressed on many AML cell lines including THP-1, Kasumi, MOLM-13, NOMO-1, and OCI-AML3, and was not expressed on HEL-2. B. 1×10⁵ AML cells were incubated with 1×10⁵ mock, F11 28ζ LH, F11 28ζ H-L, F11 BBζ L-H, or F11 BBζ H-L CAR T cells for 24 h. At 24 h, supernatant was harvested and ELISA was performed for IFNγ and IL-2. Results are representative of at least three independent experiments.

binding result [1] | binding result [2] | Binder
binds | – | mouse monoclonal anti-human CD93 antibody F11 (hybridoma clone F11) (antibody, V domains shown, Mouse hybridoma antibody tested as supernatant; also called mouse F11; parental antibody) VH: EVQLQQSGPELVKPGASVKIPCKASGYTFTDYHMDWVKQSHGKSLEWIGDIDPYNGDTVFNQKFKGKATLTVDKSSSTAYMELRSLTSEDTAVYYCTRGGDYWGQGTTLTVSS VL: DVVMTQTPLSLPVSLGDQASISCRSSQTLVHSNGNTYLHWYLQKPGQSPKLLIYKVSNRFSGVPDRFSGSGSGTDFTLKISRVEAEDLGVYFCSQSTHVPFTFGSGTKLEIK
– | binds | humanized F11-G1 (Hu F11-G1) (antibody, V domains shown, The light chain was detected with anti-human kappa; also called humanized mCD93 antibody (F11); humanized anti-CD93 antibody) VH: QVQLVQSGAEVKKPGASVKVSCKASGYTFTDYHMDWVKQAPGQGLEWIGDIDPYNGDTVFNQKFKGKATMTRDTSISTAYMELSRLRSDDTAVYYCTRGGDYWGQGTLVTVSS VL: DIVMTQTPLSLSVTPGQPASISCRSSQTLVHSNGNTYLHWYLQKPGQPPQLLIYKVSNRFSGVPDRFSGSGSGTDFTLKISRVEAEDVGVYFCSQSTHVPFTFGQGTKLEIK

From patent US20220133794A1 (Stanford University, published 2022)
